One assay has as its target peptide YY (PYY) (UniProt P10082 29-64, limits assumed, fluorescently labeled (FAM or TAMRA) in FP assays, site not stated). The assay can be described thus: fluorescence polarization. The procedure: (§1) Fluorescence polarization binding assays were carried out in 96-well plates (Corning 3686), with two-fold serial dilution of designed peptide binders in the presence of 0.5 nM fluorescently labeled peptide targets. Protein and peptide were diluted from their stock concentration into 20 mM Tris-HCl pH 8, 100 mM NaCl, 0.1% v/v Tween 20, and the protein was titrated in 2-fold serial dilutions onto constant peptide. After incubating the peptide and binder for one hour at room temperature, the fluorescence polarization was measured at the excitation and emission wavelengths of the FAM dye (485/530 nm) or the TAMRA dye (530/590 nm), in a Synergy Neo2 multi-mode plate reader. Titrations were conducted in replicate, and the Kd was fitted with SciPy¹⁸. Specifically, curves were fit to N observations of an observed signal, Signalᵢ, at titrated concentrations according to the following equation: […]

For assay [1], the target named is T1, parathyroid hormone (PTH) peptide (UniProt P01270 32-65, limits assumed, TAMRA label in FP assays (PTH-TAMRA), site not stated; biotinylated in yeast display).
T1 construct: In the NanoBiT assay the peptide was genetically fused to lgBiT; also called PTH-TAMRA peptide
T1 peptide (looked up): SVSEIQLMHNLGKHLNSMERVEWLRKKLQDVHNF
The assay can be described thus: fluorescence polarization. The procedure:
as §1
On the technique in general: Polarisation of emitted light reports the rotation of a fluorescent probe.

The target of assay [2] is PTH related peptide (PTHrp) (UniProt P12272 37-70, limits assumed, fluorescently labeled (FAM or TAMRA) in FP assays, site not stated). The assay can be described thus: fluorescence polarization. The procedure:
as §1

Assay [3] concerns the target T2, neuropeptide Y (NPY) (UniProt P01303 29-64, fluorescently labeled (FAM or TAMRA) in FP assays, site not stated; biotinylated in yeast display). The assay can be described thus: fluorescence polarization titration (FIG. 6b). The procedure: as §1
For a further assay, the target named is T3, secretin (SCT) (UniProt P09683 28-54, fluorescently labeled (FAM or TAMRA) in FP assays, site not stated).
T3 peptide (looked up): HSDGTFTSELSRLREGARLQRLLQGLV
The assay can be described thus: fluorescence polarization. The procedure: as §1

Assay [4] deals with T4, glucagon (GCG) (UniProt P01275 53-81, fluorescently labeled (FAM or TAMRA) in FP assays, site not stated; biotinylated in yeast display). The assay can be described thus: fluorescence polarization. The procedure: as §1
T4 sequence (P01275 53-81 limits assumed): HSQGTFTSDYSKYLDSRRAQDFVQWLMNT
The target of assay [5] is T1, parathyroid hormone (PTH) peptide. The assay can be described thus: fluorescence polarization, binder titrated onto labeled peptide. The procedure: as §1
The target is the same in assay [6]. Briefly: FP against the NanoBiT estimate for the starting parametric binder.
The target in assay [7] is T5, Glucagon-like peptide 1 (GLP1) (UniProt P01275 98-128, fluorescently labeled (FAM or TAMRA) in FP assays, site not stated).
T5 peptide (looked up): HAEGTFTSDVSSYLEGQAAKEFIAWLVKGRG
The assay can be described thus: fluorescence polarization titration. The procedure:
as §1

For assay [8], the target named is T5, Glucagon-like peptide 1 (GLP1). Briefly: fluorescence polarization (FIG. 7a). The procedure:
as §1

Another assay concerns the target T6, BIM BH3 peptide (Bim) (UniProt O43521 141-166, limits assumed, fluorescently labeled (FAM or TAMRA) in FP assays, site not stated; biotinylated in yeast display).
T6 construct: domain: BH3
The assay can be described thus: fluorescence polarization. The procedure: as §1

Assay [9] has as its target T4, glucagon (GCG). Briefly: fluorescence polarization titration (FIG. 6a). The procedure: as §1
The target of assay [10] is T2, neuropeptide Y (NPY). Briefly: fluorescence polarization. The procedure: as §1
For assay [11], the target named is T7, Gastric inhibitory polypeptide (GIP) (UniProt P09681 52-93, fluorescently labeled (FAM or TAMRA) in FP assays, site not stated).
T7 peptide (looked up): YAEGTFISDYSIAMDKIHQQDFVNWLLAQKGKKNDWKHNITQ
Briefly: fluorescence polarization titration. The procedure: as §1

Assay [12] deals with T7, Gastric inhibitory polypeptide (GIP). The assay can be described thus: fluorescence polarization (FIG. 7b). The procedure:
as §1

“And” between values parts separate entries of the source, which are not always exact repeats. Equal entries are not always repeated.

Sequence of peptide YY (PYY) (P10082 29-64 limits assumed): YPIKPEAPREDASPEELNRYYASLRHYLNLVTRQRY
T6 sequence (O43521 141-166 limits assumed): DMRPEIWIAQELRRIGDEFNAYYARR
Sequence of PTH related peptide (PTHrp) (P12272 37-70 limits assumed): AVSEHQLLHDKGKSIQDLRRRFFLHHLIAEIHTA

B1: PPY_A04 (RF Diffusion_flex), flexibly diffused PYY binder, SEQ ID NO: 12 (designed binder)
chain: GLEEAEKLLEEIFANFEEIVELIKKNIGTERGKKLLKVFVATVDLILARLEQGADLAELAELVKEIAELAKDEEGLEEAEKLVKELTAAR
As to B1, the equilibrium dissociation constant (Kd) (commonly the free concentration of one partner at which half of the binding sites on the other are occupied at equilibrium, for simple one-to-one binding) with peptide YY (PYY) came to 24.5 nM.

B2: PTH_D08, fully diffused PTH binder (RF Diffusion), SEQ ID NO: 10 (designed binder)
chain: MREKLEEMLEEFNEVIDELIEITKEDAPELEELRERAEEAVENERLDELEEILDELEVIILEAMFRDLSAAIEMTKAKNDKEKLKELLKQLEELEKRIKELLERAKKRGNKKIIEKLEKLLKEVEKLKKEIEEYLK
For B2, the Kd in assay [1] was under 0.5 nM. The binding result in assay [2] was “no binding”.

B3: NPY_A9 (RFjoint), inpainted NPY binder, SEQ ID NO: 4 (designed binder)
chain: GAAEKLAELYEKFKALREKALEVLKKAVEALENKADKETLLKLIKELKELAEKFEELAEEFERNAGESTTASLNATAAYMARIGLLAALLALAKAAGVPEEELEEIKRRIEETAKRAIEAAERLKALAEARGDTKHVAVGVEAVRMATELYELAQKIIDAF
Take B3: in the assay with neuropeptide Y (NPY) [3], the dissociation constant Kd amounted to 3500 nM.

B4: SCT_A02 (Sequence threading), threaded SCT binder, SEQ ID NO: 5 (designed binder)
chain: SEELEERLREARERLEEARERLEEAREEGDLREMARALLEEARAVLEIARVAAEAGDDEALREAARRAGEVIRRAGEVGLRAAEEGDTETIREAMLAILEAQRASAVIALHLARDDPEVAEALRVIERLLRTAERALREGQLEVARLATEAVEALADAILRAREIGRPELVREAARLAEEARRLLEAALEALRAGDEEGARERLARARELIREIRERVRRA
notes: also called SCT design
In the case of B4, in the assay with secretin (SCT), the equilibrium dissociation constant (Kd) is 3.95 nM and 2.7 nM. Further, in the assay with glucagon (GCG) [4], the Kd is 12 nM and the “fold selectivity for SCT over GCG” value amounted to 4 fold.

B5: PTH_B10 (RFjoint), inpainted PTH binder, SEQ ID NO: 2 (designed binder)
chain: SFELLEKLIELSKELYEVAKKYIETGDPELKKKLEEILKKIEEAYKELLESDAHPLEKALAKLILAEAYVVKSFAYISSGKDLEKAQEYLDKAKEILEELLKLLEELKKEETDPEKLEIIEELEKIAEELLKEIEE
notes: Expressed in E. coli, purified on Ni-NTA and by SEC
Regarding B5, the dissociation constant (Kd) in [5] was determined as 6.1 nM. Besides, the “fold improvement in affinity over the starting PTH binder” value in assay [6] was about 1000 fold.

B6: GLP1_B04 (Sequence threading), SEQ ID NO: 7 (designed binder)
chain: SPEEEARRAAREAERAAREAREAARRLGDEESVRVAERLEREARRAERERDLELARRVLRAAEALRLALEGELLAREQGDELGVVVARMITLAARDSALGRGTPELARLLLRVARALLEGDLEEVVRSLAEIAKREIGTERALLAVEAIKLVALESIEEGDFETAELAIEKLREIAEEFEGTEVAEKAREAIEEIEKKKREAE
With B6, the values for the Kd in [7] and in assay [8] were 68.8 nM and under 100 nM, respectively.

B7: GCG_C09 (RF Diffusion/Partial diffusion), partially diffused GCG binder, SEQ ID NO: 8 (designed binder)
chain: SMEKLAEIMQEIIEAYQEVKDAFFKFIKAVHEGAPEEELKKYLEKMKEALEKMKELLERLEKEAKKVIEENKDKKLELKVLLMLRLAYLLLKVSIELTKIAAEKLGDKELVEELEKESKEVEKKIKELEERIKKLLEEVDDEELKEAYKEVEEMEKEAEKFLEKMRKV
Turning to B7, in the assay with secretin (SCT), the “fold weaker binding to SCT than to GCG” value stood at 10 fold. The binding result with glucagon (GCG) [4] is “binds”.

B8: BIM_E09 (RF Diffusion), fully diffused Bim binder, SEQ ID NO: 11 (designed binder)
chain: EEERKEKREKVRAGLKRAIAELPAEVAARCLALLDDASDEEFIEAVLEVLEAMREALVAMAREGRLDAVRRATSHINEVLVDAAELALEKGREYFRRLCLIVCDMMIELIRLEPEQTPELRRIRERLEEIRRRLE
Consider B8, for which, in the assay with BIM BH3 peptide (Bim), the Kd is under 0.5 nM.

B9: GCG_A04 (RFjoint), inpainted GCG binder, SEQ ID NO: 3 (designed binder)
chain: MLDELFSLLNKMFELSDKYRELRKELRKAIESGAPEEELRELLEKMLEIAKKLLELTKELKKLVEDVLKNNPDPVERAKAVLLYAVGVHILYSESSELEVIAERLGFKDIAEKAKEIADKARELKEEVKRKLREIREEVPDPEIRKAAEEAIEMLESNDKRLKEFRKL
For the molecule B9, in the assay with glucagon (GCG) [9], the Kd was found to be 231 nM.

B10: NPY_C5 (RF Diffusion/Partial diffusion), partially diffused NPY binder, SEQ ID NO: 9 (designed binder)
chain: GMEERRKELLEKLKKLKEEVVELFRELAQALRDGASKERLEEIRERAEKLAEEAKKVAEELEKLAEGDAVLQLYLAEAYALEAAALTIEAVAAAELGASKEELEKIKEKIEEALKKAEEAMKKALAEAKARGRERLVRLIEEARKEFEKLSKAIKELLEQV
For the molecule B10, the binding result in the assay with peptide YY (PYY) was “no binding”. In the assay with neuropeptide Y (NPY) [10], the equilibrium dissociation constant (Kd) was 5.29 nM and 5.6 nM.

B11: GIP_A08 (Sequence threading), SEQ ID NO: 6 (designed binder)
chain: SPKEKAERLIKEAKEAAEKAKEAAERSGLEEAKKAAEELTKLLEEAAARVAADPEDETKLRALEKIVEAAKEAVKALEVAIESGDEQLIRAALSLVEAAVHLAKALLAKPESPLVDFGFELLKLAAKTLAAYAEGEDVDKIALKLKAISAMAEALRLALAGDLERAARAAEEAVRYAIEAGDKELLRLAAEVAAYIARLAEEAGLEEVARRAREAAERAREAAK
With B11, the Kd in assay [11] was 6.96 nM; in assay [12] it was under 100 nM.
